Substitutions are numbered along the chain they refer to.

The values below come from US11932673.

To fix the notation:
B1: KB_A12_B-gal_F02 (scFv, V domains shown)
VH: EVQLVESGGGLVRPGGSLRLSCAASGFTFSSYAMSWVRQAPGKGLEWVSAISGSGGSTYYADSVKGRFTISRDNTKNSLYLQMTSLRADDTAFYYCVKDFGPGYGTGWFDYWGPGTLVTVSS
VL: AVNWYQQLPGKAPKLLIYAAGRCRTTSTIRRRCKQDSDCLAGCVCGPNGFCGANSGVSDRFSAAKSGTSASLAINGLRSEDEADYYCAAWDDSLNGYVFGTGTKLTVLG
B2: KB_A12_B-gal_E05 (scFv, V domains shown)
VH: B1 VH
VL: B1 VL with T25E, T28S, I29L, R32P
B3: KB_A12_B-gal_E04 (scFv, V domains shown)
VH: B1 VH
VL: B1 VL with R24L, T25A, S27T, T28S, R32P
B4: KB_A12_B-gal_F09 (scFv, V domains shown)
VH: B1 VH
VL: B1 VL with R24I, T25A, T28H, R32H
B5: KB_A12_B-gal_G05 (scFv, V domains shown)
VH: B1 VH
VL: B1 VL with R24L, T25D, S27V, T28N, I29L
B6: KB_A12_B-gal_H03 (scFv, V domains shown)
VH: B1 VH
VL: B1 VL with R24N, T25Q, S27M, T28S, R32P
B7: KB_A12_B-gal_F11 (scFv, V domains shown)
VH: B1 VH
VL: B1 VL with R24H, T25E, S27A, T28Q
B8: KB_A12_B-gal_H02 (scFv, V domains shown)
VH: B1 VH
VL: B1 VL with R24E, T25Q, T28V, R32H
B9: KB_A12_B-gal_F03 (scFv, V domains shown)
VH: B1 VH
VL: B1 VL with R24L, T25A, S27T, T28S, R32H
B10: KB_A12_B-gal_F07 (scFv, V domains shown)
VH: B1 VH
VL: B1 VL with S27A, T28N, I29V, R32H
B11: KB_A12_B-gal_H07 (scFv, V domains shown)
VH: B1 VH
VL: B1 VL with R24T, T25Q, S27A, T28L
B12: F03 (KnotBody with EET 5-3 framing) (scFv, V domains shown)
VH: B1 VH
VL: AVNWYQQLPGRAPKLLIYAAGGCGPNGFCGSGGDGGVCPRILMRCKQDSDCLAGCGAHSGIPERFSGSKSGTSASLAISGLRSEDEADYYCAAWDDSLNGWVFGGGTKVTVLG
B13: C09 (KnotBody with EET 5-3 framing) (scFv, V domains shown)
VH: B1 VH
VL: SEAPRQRVTITCGGKRCGPNGFCGSGSDGGVCPRILMRCKQDSDCLAGCTSNWYQQKPGQAPVLVVQDDSVRPSGIPERFSGSNSGNTATLTISRVEAGDGADYYCQVWDISSDLGVFGGGTKLTVLG
B14: E05 (KnotBody with EET 5-3 framing) (scFv, V domains shown)
VH: B1 VH
VL: B12 VL with R11K, G33S, H58Q, R82Q, D88H, W101Y, G105T
B15: E09 (KnotBody with EET 5-3 framing) (scFv, V domains shown)
VH: B1 VH
VL: B12 VL with R11K, G33S, A57T, H58Q, N99R, G100A, W101Y, G105T, K108Q, V109L
B16: G11 (KnotBody with EET 5-3 framing) (scFv, V domains shown)
VH: B1 VH
VL: AVNWYQQLPGKAPKLLIYAAGGCGPNGFCGSGSDGGVCPRILMRCKQDSDCLAGCGQSSGVSDRFSGSKSGTSATLDITGLQTGDEADYYCGTWDNSLSVGVFGGGTKVTVLG
B17: F01 (KnotBody with EET 5-3 framing) (scFv, V domains shown)
VH: B1 VH
VL: YLNWYQQKPGKAPKLLIDAAGECGPNGFCGSGSDGGVCPRINMRCKQDSDCLAGCGRDSGVPSRFSGSGSGTDFTLTISSLQPEDFATYYCQQSYSTPWTFGQGTKVEIKR
B18: E03 (KnotBody with EET 5-3 framing) (scFv, V domains shown)
VH: B1 VH
VL: AVNWYQQLPGKAPKLLIYAAGGCGPNGFCGSGSDGGVCPRILMRCKQDSDCLAGCGRNSGIPERFSGSKSGHTATLTISRVEAGDEADYYCQVWDSSSDHVLFGGGTKLTVLG
B19: E08 (KnotBody with EET 5-3 framing) (scFv, V domains shown)
VH: B1 VH
VL: B12 VL with R11K, G33S, A57I, H58Q, S97N, N99S, W101Y, G105T, V109L
B20: F07 (KnotBody with EET 5-3 framing) (scFv, V domains shown)
VH: B1 VH
VL: AVNWYQQLPGKAPKLLIYAAGGCGPNGFCGSGSDGGVCPRILMRCKQDSDCLAGCGGQSGVPDRFSGSKSGTSASLAISRLQSEDEADYYCAAWDDSLNAYVFGTGTKVTVLG
B21: E01 (KnotBody with EET 5-3 framing) (scFv, V domains shown)
VH: B1 VH
VL: B20 VL with G57I, Q58H, P62S, G67D, R80G, A100G, V109L

For one experiment, the target named is β-galactosidase. Kind of experiment: monoclonal phage TRF.
Sequence of β-galactosidase (P00722 2-1024): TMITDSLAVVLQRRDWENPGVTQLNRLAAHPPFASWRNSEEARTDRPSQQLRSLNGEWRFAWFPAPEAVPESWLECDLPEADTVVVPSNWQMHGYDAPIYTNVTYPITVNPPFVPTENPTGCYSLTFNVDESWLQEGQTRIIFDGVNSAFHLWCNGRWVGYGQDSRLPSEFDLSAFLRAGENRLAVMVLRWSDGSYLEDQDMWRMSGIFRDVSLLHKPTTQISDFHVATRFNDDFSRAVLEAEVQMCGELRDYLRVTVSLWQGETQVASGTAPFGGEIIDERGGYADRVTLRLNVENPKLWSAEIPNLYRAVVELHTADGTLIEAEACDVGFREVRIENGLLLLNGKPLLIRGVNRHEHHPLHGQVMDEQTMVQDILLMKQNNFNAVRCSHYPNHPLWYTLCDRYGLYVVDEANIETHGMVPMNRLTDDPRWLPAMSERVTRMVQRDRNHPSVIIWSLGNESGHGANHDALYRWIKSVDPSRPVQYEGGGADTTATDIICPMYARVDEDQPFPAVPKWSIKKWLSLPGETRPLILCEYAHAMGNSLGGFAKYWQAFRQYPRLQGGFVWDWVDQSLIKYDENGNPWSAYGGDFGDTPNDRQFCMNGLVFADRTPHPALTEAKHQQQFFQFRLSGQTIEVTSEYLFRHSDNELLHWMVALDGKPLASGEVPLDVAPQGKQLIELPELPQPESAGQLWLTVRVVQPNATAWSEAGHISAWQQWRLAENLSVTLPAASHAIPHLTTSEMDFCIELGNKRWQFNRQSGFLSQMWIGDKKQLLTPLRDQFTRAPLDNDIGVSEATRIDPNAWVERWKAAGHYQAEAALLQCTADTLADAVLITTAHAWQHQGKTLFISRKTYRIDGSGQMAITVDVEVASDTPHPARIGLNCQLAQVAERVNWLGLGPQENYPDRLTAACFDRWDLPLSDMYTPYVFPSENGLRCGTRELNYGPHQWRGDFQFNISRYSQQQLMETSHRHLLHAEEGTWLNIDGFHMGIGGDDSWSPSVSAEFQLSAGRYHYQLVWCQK
As to B1, the TRF signal was determined as 476000.
As for B2, the TRF signal came to 312000.
As for B3, the TRF signal is 523000.
For B4, the TRF signal turned out to be 258000.
Same read-out and setting: for B5 the value was 529000; for B6, 518000; for B7, 531000.
In turn, B8 showed a TRF signal of 501000.
Same read-out and setting: the result for B9 reads 289000; that for B10, 246000; that for B11, 62000.

A further experiment deals with trypsin. Kind of experiment: monoclonal phage ELISA. A general note: In an ELISA, binding on a coated surface is turned into a signal by an enzyme label.
In turn, B12 gave an ELISA signal of 68000.
Take B13: the ELISA signal was determined as 9820.
Still for that read-out and setting: for B14 the value was 119000; for B15, 70300.
As for B16, the ELISA signal amounted to 27600.
B17: the ELISA signal amounted to 102000.
For the molecule B18, the ELISA signal is 82500.
Turning to B19, the ELISA signal is 121000.
Same read-out and setting: for B20 the value was 72800.
As to B21, the ELISA signal worked out at 128000.
